Reference: patent US20220089784A1 (University of California, published 2022)

Key:
Experiment in all cases: yeast scFv FACS
BoNT/D = target: T1, BoNT/D (Clostridium botulinum, UniProt P19321 2-1276)
T1 sequence: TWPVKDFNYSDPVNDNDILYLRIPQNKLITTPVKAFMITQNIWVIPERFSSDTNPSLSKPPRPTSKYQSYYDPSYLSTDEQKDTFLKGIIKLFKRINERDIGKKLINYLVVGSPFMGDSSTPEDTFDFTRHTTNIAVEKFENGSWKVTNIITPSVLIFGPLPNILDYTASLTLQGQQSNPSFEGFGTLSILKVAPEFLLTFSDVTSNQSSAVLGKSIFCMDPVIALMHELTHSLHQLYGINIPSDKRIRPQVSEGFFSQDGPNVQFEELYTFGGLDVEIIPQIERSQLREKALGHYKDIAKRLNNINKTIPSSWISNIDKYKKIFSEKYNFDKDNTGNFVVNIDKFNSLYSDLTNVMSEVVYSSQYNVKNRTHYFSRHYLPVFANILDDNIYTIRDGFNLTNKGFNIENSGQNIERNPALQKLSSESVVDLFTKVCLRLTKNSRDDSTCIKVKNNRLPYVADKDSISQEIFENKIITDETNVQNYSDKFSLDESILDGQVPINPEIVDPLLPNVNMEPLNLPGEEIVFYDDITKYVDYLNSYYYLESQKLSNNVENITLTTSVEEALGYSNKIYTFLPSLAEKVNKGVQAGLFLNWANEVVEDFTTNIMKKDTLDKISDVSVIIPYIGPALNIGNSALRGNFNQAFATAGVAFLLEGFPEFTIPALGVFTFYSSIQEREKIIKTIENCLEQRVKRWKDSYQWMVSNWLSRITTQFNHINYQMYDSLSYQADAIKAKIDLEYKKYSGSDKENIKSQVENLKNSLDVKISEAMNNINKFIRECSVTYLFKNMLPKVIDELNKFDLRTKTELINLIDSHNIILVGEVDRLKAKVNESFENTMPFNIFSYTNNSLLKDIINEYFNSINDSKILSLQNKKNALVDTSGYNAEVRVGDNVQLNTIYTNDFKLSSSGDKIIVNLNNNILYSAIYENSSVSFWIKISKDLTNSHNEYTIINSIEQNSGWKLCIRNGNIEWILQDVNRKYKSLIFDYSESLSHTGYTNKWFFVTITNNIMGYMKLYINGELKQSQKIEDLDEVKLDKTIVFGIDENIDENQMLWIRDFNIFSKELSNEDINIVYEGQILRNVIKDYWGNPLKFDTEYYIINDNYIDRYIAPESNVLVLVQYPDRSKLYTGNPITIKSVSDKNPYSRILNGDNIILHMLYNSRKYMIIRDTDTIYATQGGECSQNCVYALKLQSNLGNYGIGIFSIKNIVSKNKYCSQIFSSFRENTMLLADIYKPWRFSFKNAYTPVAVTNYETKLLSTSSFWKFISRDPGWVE

BoNT/C1 holotoxin [1] = target: T2, BoNT/C1 holotoxin (Clostridium botulinum, UniProt P18640 2-1291)
T2 sequence: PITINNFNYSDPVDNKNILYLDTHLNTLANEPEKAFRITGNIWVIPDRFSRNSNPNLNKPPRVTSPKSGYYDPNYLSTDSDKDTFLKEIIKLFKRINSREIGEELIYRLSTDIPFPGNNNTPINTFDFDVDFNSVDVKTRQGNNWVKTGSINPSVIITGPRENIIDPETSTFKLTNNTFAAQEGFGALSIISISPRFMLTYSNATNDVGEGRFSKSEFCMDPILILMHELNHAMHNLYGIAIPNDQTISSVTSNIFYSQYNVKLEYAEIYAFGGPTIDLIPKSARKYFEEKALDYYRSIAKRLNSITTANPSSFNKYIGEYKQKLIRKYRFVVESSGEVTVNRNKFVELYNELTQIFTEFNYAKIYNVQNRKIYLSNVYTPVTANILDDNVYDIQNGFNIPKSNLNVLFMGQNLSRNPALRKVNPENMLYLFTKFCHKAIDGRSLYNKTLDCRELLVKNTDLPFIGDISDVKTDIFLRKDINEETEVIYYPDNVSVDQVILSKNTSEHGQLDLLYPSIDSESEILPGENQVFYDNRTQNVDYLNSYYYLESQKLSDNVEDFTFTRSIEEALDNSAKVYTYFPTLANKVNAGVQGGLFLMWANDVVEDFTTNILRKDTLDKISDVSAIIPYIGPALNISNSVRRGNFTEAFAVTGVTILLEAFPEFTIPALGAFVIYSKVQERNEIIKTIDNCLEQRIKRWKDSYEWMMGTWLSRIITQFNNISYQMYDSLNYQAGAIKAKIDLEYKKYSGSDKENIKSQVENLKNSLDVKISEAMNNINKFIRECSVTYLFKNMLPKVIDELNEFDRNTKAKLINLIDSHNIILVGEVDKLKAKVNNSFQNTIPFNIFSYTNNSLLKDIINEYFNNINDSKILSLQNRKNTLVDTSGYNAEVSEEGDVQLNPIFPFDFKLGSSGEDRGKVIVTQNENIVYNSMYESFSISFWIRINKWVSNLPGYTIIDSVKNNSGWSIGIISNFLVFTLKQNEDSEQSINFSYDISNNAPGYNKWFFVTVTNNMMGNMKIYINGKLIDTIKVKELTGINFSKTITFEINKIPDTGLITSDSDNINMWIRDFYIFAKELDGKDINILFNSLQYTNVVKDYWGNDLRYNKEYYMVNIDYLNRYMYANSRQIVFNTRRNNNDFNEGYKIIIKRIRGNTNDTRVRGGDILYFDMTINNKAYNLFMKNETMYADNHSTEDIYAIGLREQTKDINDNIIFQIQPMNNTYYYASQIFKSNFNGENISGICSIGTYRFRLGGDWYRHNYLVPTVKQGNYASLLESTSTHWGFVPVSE

BoNT/C1 holotoxin [2] = target: T2, BoNT/C1 holotoxin; remark: listed apart in the source

Row | Binder | binding result (BoNT/D) | Kd (BoNT/C1 holotoxin [1]) [nM] | binding result (BoNT/C1 holotoxin [2])
1 | 1C1 scFv (scFv, V domains shown, human) VH: QVQLQESGSGLVKPSQSLSLTCAVSGGSISSGDYSWSWIRQPPGEGLEWIGYIFPRGSTYYNPSLRSRVTMSVDRSKNQFSLSLNSVTAADTAVYYCARTKMGAAEGVFDYWGQGTLVTVSS VL: DIVMTQSPSTLSASVGDRVTITCRASQSVSTWLAWYQQKPGKAPNLLISEASNLESGVPSRFSGSGSGTEFTLTISSLQPDDFAIYYCQQYNSYVWTFGQGTKLEIK | no binding (tested: ~1 µM) | 0.5 | –
2 | 1C1.1 scFv (scFv, V domains shown, human) VH: QVQLQESGSGLVKPSQSLSLTCAVSGGSISSGDYSWSWIRQPPGEGLEWIGYIFPRGSTYYNPSLRSRVTMSVDRSKNQFSLSLNSVTAADTAVYYCARTKMGAAEGVFDYWGQGTLVTVSS VL: EIVLTQSPSSLPASVGDRVTITCRASQSIGTYLNWYQHKPGSAPKLLINAASSLQSGVPSRFSGSGSGTDFTLTISSLQPDDFATYYCQQYNSYTWTFGQGTKVGIK | no binding (tested: ~1 µM) | 0.15 | –
3 | 1C2 scFv (scFv, V domains shown, human) VH: QVQLQQSGAEVRKSGASVKVSCKTSGYTFTTYYIHWVRQAPGQGLEWMGMIDPRGGSASYAQRFQGRVTMTRDTSTTTVFLALNSLESNDTAVYYCARGGLPYQQLPLWGQGTLVTVSS VL: not shown | no binding (tested: ~1 µM) | 24 | –
4 | 1C8 scFv (scFv, V domains shown, human) VH: QVQLQQSGAEVKKPGASVKVSCKASAFTFNSNYIHWVRLAPGQGPEWMGIINPDGGRTTYAQKFQGRITMTTDTSTYAVYMELSSLRSEDTAVYYCARGATNIPYGMSVWGQGTTVTVSS VL: DIVMTQSPSSLSASVGDRVTITCRASQAIRNDLGWYQQEPGKAPKLLIYAASTLQSGVPSRFSGRGSGTDFTLTISSLQPEDFATYYCLQHNSYPLTFGGGTKVDIK | – | 42 | –
5 | 87C1 scFv (scFv, V domains shown, human) VH: QVQLQQSGGGVVQPGRSLRLSCAGSGFTLSTYGMHWVRQAPGKGLEWVAVISNDGSKEYYADSVKGRFAISRDNSKNTLSLQMNGLRAEDTAIYYCAKAIKSYSTIGGACNLWGQGTMVTVSS VL: DIVMTQSPSFLSASVGDRVTITCRASQSISSYLNWYQQKPGKAPKLLIYAASSLQSGVPSRFSGSRSGTYFTLTISSLQPEDFATYYCQQSYITWTFGQGTRLEIK | no binding (tested: ~1 µM) | 2 | –
6 | 4C2 scFv (scFv, V domains shown, human) VH: EVQLVQSGGNLVQPGGSLRLSCTASGFIFSNHWMQWVRQIPGKGLMWVSRINDSGRSTSYAGFVKGRFTMSRDNAKNTLFLQMNSLTAEDTGVYYCVRETWEVLGHLGYEVLDHWGLGTLVTVSS VL: DIVMTQSPSSLSASVGDRVTITCRASQGISSYLAWYQQKPGKAPKLLIYAASTLQSGVPSRFSGSGSGTEFTLTISSLQPEDFATYYCQQLNSYPRTFGQGTKVDIK | – | 0.19 | –
7 | 4C10 scFv (scFv, V domains shown, human) VH: QVQLVESGGGAVQPGESLRLSCAASGFTFSGFDMHWVRQSPGRGLEWVARISHDGSMADYADSLRGRFTISRDNPKNTLYLHMNSLRVEDTALYYCAKDRWRSGSYPAFEKWGQGTMVTVSS VL: QSVPTQPASVSGSPGQSITISCTGTSSDVGAYNYVSWYQQHPGKAPKLMIYDVSDRPSGVSNRFSGSKSGNTASLTISGLQAEDEADYYCSSYTSSSTYVFGTGTKLTVL | – | 0.39 | –
8 | 8DC3.1 scFv (scFv, V domains shown, human) VH: QVQLVQSRGGLVKPGGSLRLSCAASGFTFSSHSMNWVRQAPGKGLEWVSSISSSSSYIYYADSVKGRFTISRDNSKNSLYLQLNSLRAEDTAVYYCARDQGGGSVVGTNWFDPWGQGTLVTVSS VL: SALTQPASVSGSPGQSVTISCTGTSSDVGGYNYVSWYQQHPGKAPKLMIYDVSKRPSGVPDRFSGSKSGNTASLTISGLQAEDEADYYCCSYAGRYTYVFGTGTKVTVL | binds | – | no binding (tested: ~1 µM)
9 | 8DC6 scFv (scFv, V domains shown, human) VH: EVQMVESGGGVVQPGRSLRLSCAASGFTFTSYAMHWVRQAPGKGLEWVAMISNDESNTKYADSVKGRFTISRDNSKNTLFLQMNSLRAEDTAMYSCARGGYYTRPLAFDTWGPGTTVTVSS VL: DVVMTQSPSSVSASVGDRVTITCRASQGISSYLAWYQQKPGKVPKLLIYAASSLQRGVPSRFSGSGSGTDFTLTISRLQPEDVATYYCQKYNSAPLTFGGGTKVEIK | – | – | no binding (tested: ~1 µM)
10 | 8DC8 scFv (scFv, V domains shown, human) VH: QVQLQQSGPGLVKPSETLSLTCTVSGGSISSAGYSWSWIRQSPGKGLECLGYIYQTGSTFYNLSLKGRVTMSLDRSKNQISLRLTSVVAADTAVYYCARVVGVYPGWFDSWGQGTLVTVSS VL: DIVMTQSPSTLSASVGDRVTITCRASQSINIWMAWYQQKPGKAPKLLVYKASSLESGVPSRFSGSGSGTEFTLTISSLQPDDFATYYCQQYNSYGTFGKGTKVEIK | – | – | no binding (tested: ~1 µM)
11 | 8DC8.3 scFv (scFv, V domains shown, human) VH: QVQLQQSGPGLVKPSETLSLTCTVSGGSISSAGYSWSWIRQSPGKGLECLGYIYQTGSTFYNLSLKGRVTMSLDRSKNQISLRLTSVVAADTAVYYCARVVGVYPGWFDSWGQGTLVTVSS VL: DIVMTQSPSSLSASVGDRVTITCRASQSVSRWLAWYQQKPGKPPKLLIYEASSLESGVPSRFSGSGSGTDFTLTITSLQPEDFATYYCQQYENLPPSTFGGGTKLEIK | – | – | no binding (tested: ~1 µM)
12 | 8DC15 scFv (scFv, V domains shown, human) VH: QVQLQESGPGLLKPSQTLSLTCSVSGGSMITGGYYWTWVRQLPGKGLEWIGHVYYTGKTYYNPSLNGRFTIAIDTSKNQFSLNLNSVTATDTAVFYCARAIWGGWYFDLWGQGTLVTVSS VL: DIQMTQSPSSLSASVGDRITITCRASRDIRDDLAWYQQKPGKAPKLLIYAASSLQSGVPSRFSGSGSGTEFTLTISSLQPEDFATYYCQQANSFPLTFGGGTKVDIK | no binding (tested: ~1 µM) | – | –
13 | 8D2 scFv (scFv, V domains shown, human) VH: QVQLVQSGAEVKKPGESLKISCKGSGYSFTSYWIGWVRQMPGKGLEWMGIIYPGDSDTRYSPSFQGQVTISADKSISTAYLQWSSLKASDTAMYYCVSYSSLDAFDIWGQGTMVTVSS VL: EIVLTQSPSSLSASVGDRVTITCQASQDISNSLCWYQQKPGKAPKLLIYDASNLETGVPSRFSGSGSGTDFIFTISSLQPEDIATYYCQQYDNLLRVFGGGTKLEIK | – | – | no binding (tested: ~1 µM)
